Assay results from US20170355774A1 (Regeneron, published 2017).

T1: human GITR (amino acids M1-V241, NCBI Accession #NP_004186.1) expressed on cells (human, UniProt Q9Y5U5 26-241)
T1 sequence: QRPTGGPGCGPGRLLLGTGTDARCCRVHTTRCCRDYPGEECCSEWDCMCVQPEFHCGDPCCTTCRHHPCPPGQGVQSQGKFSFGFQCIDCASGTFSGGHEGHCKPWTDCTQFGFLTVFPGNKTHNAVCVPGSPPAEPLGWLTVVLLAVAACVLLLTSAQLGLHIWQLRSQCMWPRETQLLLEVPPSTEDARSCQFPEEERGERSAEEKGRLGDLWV

T2: mfGITR.mmh (Macaca fasicularis)
T2 construct: soluble monomeric construct; also called Macaca fasicularis (mf) GITR.mmh; cynomolgus GITR protein
T2 chain: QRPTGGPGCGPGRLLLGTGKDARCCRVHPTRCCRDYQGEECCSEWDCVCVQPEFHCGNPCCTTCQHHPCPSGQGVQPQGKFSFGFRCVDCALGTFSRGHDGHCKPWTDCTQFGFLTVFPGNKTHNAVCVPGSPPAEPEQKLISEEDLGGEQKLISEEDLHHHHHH

T3: hGITR.mFc (human)
T3 construct: soluble dimeric construct with mouse Fc; also called dimeric human GITR
T3 chain: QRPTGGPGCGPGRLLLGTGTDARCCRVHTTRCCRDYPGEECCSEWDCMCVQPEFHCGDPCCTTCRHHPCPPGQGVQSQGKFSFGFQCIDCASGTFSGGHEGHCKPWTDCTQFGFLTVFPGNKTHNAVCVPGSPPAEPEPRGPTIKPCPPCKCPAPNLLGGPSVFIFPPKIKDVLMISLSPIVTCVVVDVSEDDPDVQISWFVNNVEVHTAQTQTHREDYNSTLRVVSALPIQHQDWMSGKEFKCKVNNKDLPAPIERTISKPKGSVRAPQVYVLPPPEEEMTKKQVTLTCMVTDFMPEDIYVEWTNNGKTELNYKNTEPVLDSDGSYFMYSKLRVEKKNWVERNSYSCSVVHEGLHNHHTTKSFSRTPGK

T4: hGITR.mmh (human)
T4 construct: soluble monomeric construct; also called human (h) GITR.mmh; monomeric human GITR
T4 chain: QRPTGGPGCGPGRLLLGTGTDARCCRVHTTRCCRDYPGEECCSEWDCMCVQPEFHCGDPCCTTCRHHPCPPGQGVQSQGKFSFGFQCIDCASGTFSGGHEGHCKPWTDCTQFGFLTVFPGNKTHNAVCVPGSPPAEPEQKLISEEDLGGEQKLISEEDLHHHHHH


Columns and labels:
[1] = target: T1, human GITR (amino acids M1-V241, NCBI …); assay: cell-based or functional assay
[2] = target: T1, human GITR (amino acids M1-V241, NCBI …); assay: cell-based or functional assay; remark: listed apart in the source
[3] = target: T1, human GITR (amino acids M1-V241, NCBI …); assay: cell-based or functional assay; remark: listed apart in the source
[4] = target: T1, human GITR (amino acids M1-V241, NCBI …); assay: ECL cell binding, hGITR/HEK293-D9
How it was run: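 Cells blocked with 2% BSA, then antibody dilutions from 1.7 pM to 100 nM added 1 h at RT. Bound antibody detected with SULFO-TAG anti-human kappa antibody, electrochemiluminescence read, RLU fitted by four-parameter logistic; signal at 100 nM on hGITR cells versus parental cells also recorded.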

[5] = target: T1, human GITR (amino acids M1-V241, NCBI …); assay: cell-based or functional assay; remark: listed apart in the source
mfGITR.mmh = target: T2, mfGITR.mmh; assay: SPR 37C, mAb capture
hGITR.mFc = target: T3, hGITR.mFc; assay: SPR 37C, mAb capture
hGITR.mmh = target: T4, hGITR.mmh; assay: SPR 37C, mAb capture

Binder	fold activation, T-cell proliferation, plate-bound Ab 10.6 nM, donor 1 [1]	fold activation, T-cell proliferation, plate-bound Ab 10.6 nM, donor 2 [1]	fold activation, T-cell proliferation, plate-bound Ab 10.6 nM, donor 3 [1]	fold activation, T-cell proliferation, plate-bound Ab 10.6 nM, donor 4 [1]	fold activation, T-cell proliferation, plate-bound Ab 10.6 nM, donor 5 [1]	fold activation, T-cell proliferation, plate-bound Ab 10.6 nM, donor 6 [1]	fold activation, T-cell proliferation, plate-bound Ab 10.6 nM, donor 7 [1]	fold activation, T-cell proliferation, plate-bound Ab 10.6 nM, donor 8 [1]	fold activation, T-cell proliferation, plate-bound Ab 10.6 nM, mean [1]	% Activation, NF-kB-Luc, non-anchored [2]	% Blocking, NF-kB-Luc, non-anchored [2]	EC50, hGITR activation, NF-kB-Luc, non-anchored [2]	IC50, blocking of hGITRL stimulation, NF-kB-Luc, non-anchored [2]	fold activation, T-cell proliferation, 33 nM, FcgR anchored, donor 1 [3]	fold activation, T-cell proliferation, 33 nM, FcgR anchored, donor 2 [3]	fold activation, T-cell proliferation, 33 nM, FcgR anchored, donor 3 [3]	fold activation, T-cell proliferation, 33 nM, FcgR anchored, donor 4 [3]	fold activation, T-cell proliferation, 33 nM, FcgR anchored, donor 5 [3]	fold activation, T-cell proliferation, 33 nM, FcgR anchored, mean [3]	Average Signal (RLU) at 100 nM [4]	further results
H4H14470P (antibody, human IgG4, V domains shown, human IgG4 (H4H)) VH: QVQLVESGGGVVQPGRSLRLSCAASGFTVRNYGMHWVRQAPGKGLEWVAVIWYDGSNKYYADSVKGRFTISRDNSKNTLFLQMNSLRAEDTAVYYCARGGELVRGDYYYGMDVWGQGTTVTVSS VL: DIQMTQSPSSLSASVGDRVTITCRASQGIRNDLGWYQQKPGKAPKRLIYGASSLQSGVPSRFSGSGSGTEFTLTISSLQPEDFATYYCLQHNSYPYTFGQGTKLEIK	0 fold	3 fold	3 fold	4 fold	3 fold	6 fold	4 fold	1 fold	3 fold	20%	80%	1.2 nM	0.9 nM	1.8 fold	1 fold	1.4 fold	1.5 fold	2 fold	1.5 fold	8390 RLU	EC50 [4]: 1.4 nM; fold activation, T-cell proliferation, 22 nM, non-anchored, donor 1 [5]: 0.7 fold; fold activation, T-cell proliferation, 22 nM, non-anchored, donor 2 [5]: 0.9 fold; fold activation, T-cell proliferation, 22 nM, non-anchored, donor 3 [5]: 1 fold; fold activation, T-cell proliferation, 22 nM, non-anchored, donor 4 [5]: 1.7 fold; fold activation, T-cell proliferation, 22 nM, non-anchored, mean [5]: 1.1 fold; binding result (mfGITR.mmh): no binding; Kd (hGITR.mFc): 1.15 nM; koff (hGITR.mFc): 0.00104 s⁻¹; kon (hGITR.mFc): 904000 M⁻¹ s⁻¹; t½ (hGITR.mFc): 11.1 min; Kd (hGITR.mmh): 64.7 nM; koff (hGITR.mmh): 0.0143 s⁻¹; kon (hGITR.mmh): 221000 M⁻¹ s⁻¹; t½ (hGITR.mmh): 0.8 min
H4H14532P2 (antibody, human IgG4, V domains shown, human IgG4 (H4H)) VH: QVQLVESGGGVVQPGRSLRLSCSASGFTLSNFVMHWVRQAPGKGLEWVAVILYDGSNKYYADSVKGRFTISRDNSNNRLYLQMNSLRAEDTALYYCARGESLGSPIYYYYGLDVWGQGTTVTVSS VL: not shown	2 fold	6 fold	6 fold	12 fold	6 fold	19 fold	7 fold	2 fold	8 fold	30%	90%	1.2 nM	1 nM	0.8 fold	0.9 fold	1 fold	1.7 fold	2.1 fold	1.3 fold	5740 RLU	EC50 [4]: 0.43 nM; fold activation, T-cell proliferation, 22 nM, non-anchored, donor 1 [5]: 0.7 fold; fold activation, T-cell proliferation, 22 nM, non-anchored, donor 2 [5]: 0.8 fold; fold activation, T-cell proliferation, 22 nM, non-anchored, donor 3 [5]: 1 fold; fold activation, T-cell proliferation, 22 nM, non-anchored, donor 4 [5]: 1.1 fold; fold activation, T-cell proliferation, 22 nM, non-anchored, mean [5]: 0.9 fold; Kd (mfGITR.mmh): 24.9 nM; koff (mfGITR.mmh): 0.00648 s⁻¹; kon (mfGITR.mmh): 260000 M⁻¹ s⁻¹; t½ (mfGITR.mmh): 1.8 min; Kd (hGITR.mFc): 0.373 nM; koff (hGITR.mFc): 0.000269 s⁻¹; kon (hGITR.mFc): 720000 M⁻¹ s⁻¹; t½ (hGITR.mFc): 42.9 min; Kd (hGITR.mmh): 18.5 nM; koff (hGITR.mmh): 0.00645 s⁻¹; kon (hGITR.mmh): 348000 M⁻¹ s⁻¹; t½ (hGITR.mmh): 1.8 min
